The target in experiment [1] is somatomedin B domain (SMTB 1–44) of vitronectin (human). Kind of experiment: ELISA; competition: SMTB 1–44 (1.25 µg/well) immobilized; Cyr61 (30 nM) mixed with stable mutant PAI-1 (0, 50, 500 nM) or ixolaris (500 nM) in PBS-T, added for 90 minutes; bound Cyr61 detected with anti-Cyr61 antibody. A general note: ELISA stands for enzyme-linked immunosorbent assay.
Experiment [2] concerns the target denatured multimeric human vitronectin (VTNC) (human).
Experiment [3] deals with somatomedin B domain (SMTB 1–44) of vitronectin (human). The experiment is described as follows: SPR; kinetics, Biacore T100: monomeric (667.4 RU) or multimeric (625.2 RU) VTNC or SMTB 1–44 (337.2 RU) immobilized on CM5 by amine coupling; analyte injected 90 s at 30 µl/minute, 25°C, HBS-P (10 mM Hepes pH 7.4, 150 mM NaCl, 0.005% P20); Cyr61 fitted by the global two-state (conformational change) model, PAI-1 by the Langmuir 1:1 model. In general terms: In SPR one partner is held on a chip, and binding of the other changes the refractive index at the surface.

The target of experiment [4] is Cyr61/CCN1 (UniProt O00622). The experiment is described as follows: ELISA; competitive ELISA: wells coated with multimeric VTNC (25 ng/well); Cyr61 (30 nM) co-incubated for 90 minutes with increasing concentrations of soluble VTNC forms, SMTB 1–44 or ixolaris; VTNC-bound Cyr61 detected with anti-Cyr61 antibody.
Experiment [5] deals with somatomedin B domain (SMTB 1–44) of vitronectin (human). The experiment is described as follows: ELISA; solid-phase binding assay: VTNC (25 ng/well) or SMTB 1–44 (2.5 µg/well) immobilized on plates, Cyr61 0–1 µM in PBS-0.4% Tween 20 for 90 minutes, detected with anti-Cyr61 monoclonal antibody; apparent KD by Langmuir isotherm.
For experiment [6], the target named is native monomeric human vitronectin (VTNC) (human). The description is as above.
The target of experiment [7] is denatured multimeric human vitronectin (VTNC) (human). The description is as above.
For experiment [8], the target named is native monomeric human vitronectin (VTNC) (human). The experiment is described as follows: SPR; kinetics, Biacore T100: monomeric (667.4 RU) or multimeric (625.2 RU) VTNC or SMTB 1–44 (337.2 RU) immobilized on CM5 by amine coupling; analyte injected 90 s at 30 µl/minute, 25°C, HBS-P (10 mM Hepes pH 7.4, 150 mM NaCl, 0.005% P20); Cyr61 fitted by the global two-state (conformational change) model, PAI-1 by the Langmuir 1:1 model.

Experiment [9] has as its target denatured multimeric human vitronectin (VTNC) (human). The experiment is described as above.
Experiment [10] has the same target. The experiment is described as follows: ELISA; solid-phase binding assay as a3 on multimeric VTNC, in TBS 0.4% Tween supplemented with 0.5% gelatin; apparent KD.
In experiment [11] the target is PAI-1 (recombinant stable mutant form) (UniProt P05121). The experiment is described as follows: ITC; VP-ITC, 30°C, 5 µL injections of 10 µM SMTB 1–44 into 1 µM PAI-1 or Cyr61 in the cell; 20 mM Tris-HCl, 0.15 M NaCl, pH 7.4; single-site model. (In ITC the heat of successive injections is recorded.)

Ends that are not written are not given here.

“PAI-1 (recombinant stable mutant form) (from UniProt P05121 24-402) (natural protein)” yielded a percent inhibition of Cyr61 binding to SMTB 1–44 at 500 nM PAI-1 in [1] above 80%. For the same molecule, the inhibition of adhesion of uPAR-bearing PMA-differentiated U937 cells to VTNC-coated wells pre-incubated with stable mutant PAI-1 (1.5 µM); pair blocked: uPAR with VTNC in experiment [2] was above 90%. In experiment [3], the Kd turned out to be 0.0433 nM, the koff (usually the first-order rate constant of dissociation) stood at 0.0001 s⁻¹ and the kon (usually a measure of how fast the partners come together) stood at 2.31e+06 M⁻¹ s⁻¹.
In the case of “denatured multimeric human vitronectin (VTNC) (natural protein)”, in experiment [4], the percent inhibition of Cyr61 binding to immobilized VTNC at 15 µg/ml was above 50%.

B1: Cyr61/CCN1 (natural protein)
chain: TCPAACHCPLEAPKCAPGVGLVRDGCGCCKVCAKQLNEDCSKTQPCDHTKGLECNFGASSTALKGICRAQSEGRPCEYNSRIYQNGESFQPNCKHQCTCIDGAVGCIPLCPQELSLPNLGCPNPRLVKVTGQCCEEWVCDEDSIKDPMEDQDGLLGKELGFDASEVELTRNNELIAVGKGSSLKRLPVFGMEPRILYNPLQGQKCIVQTTSWSQCSKTCGTGISTRVTNDNPECRLVKETRICEVRPCGQPVYSSLKKGKKCSKTKKSPEPVRFTYAGCLSVKKYRPKYCGSCVDGRCCTPQLTRTVKMRFRCEDGETFSKNVMMIQSCKCNYNCPHANEAAFPFYRLFNDIHKFRD
In experiment [2], B1 showed an inhibition of adhesion of uPAR-bearing PMA-differentiated U937 cells to VTNC-coated wells pre-incubated with Cyr61 (1.5 µM); pair blocked: uPAR with VTNC of 40%. Further, the Kd was 27.2 nM in experiment [5]; 26.5 nM in experiment [6]; 22.6 nM in [7]; 5.66 nM in [8]; 10.1 nM in experiment [3]; 27.6 nM in experiment [9]. Besides, in [10], the Kd was found to be 36.5 nM. The ka1 (two-state model, step 1) is 568000 M⁻¹ s⁻¹ in [8], 127000 M⁻¹ s⁻¹ in experiment [3] and 104000 M⁻¹ s⁻¹ in experiment [9]. Besides, the ka2 (two-state model, step 2) in experiment [8] stood at 0.00783 s⁻¹; in experiment [3], 0.0109 s⁻¹; in experiment [9], 0.00255 s⁻¹. Moreover, the results for the kd1 (two-state model, step 1) in experiment [8], in [3] and in experiment [9] were 0.0245 s⁻¹, 0.025 s⁻¹ and 0.0695 s⁻¹, respectively. Further, the kd2 (two-state model, step 2) in [8] worked out at 0.00118 s⁻¹; in experiment [3], 0.000592 s⁻¹; in experiment [9], 0.00011 s⁻¹.

B2: somatomedin B domain (SMTB 1–44) of vitronectin (peptide)
peptide: DQESCKGRCTEGFNVDKKCQCDELCSYYQSCCTDYTAECKPQVT
modifications: disulfide (positions not given here); also: eight oxidized cysteines, pairing not given here
B2: in [11], the Kd was below 1 nM; the dH is -24 kcal/mol; the stoichiometry N (as a rule, the number of molecules, sites or subunits per partner or assembly) is 0.77.
